Assay [1] deals with T1, Bacillus anthracis protective antigen (PA), 83 kDa polypeptide (Bacillus anthracis, UniProt P13423 30-764). Nature of the assay: SPR.
The target in assay [2] is T1, Bacillus anthracis protective antigen …. Nature of the assay: SPR, PA immobilized on CM5 chip.

T1 sequence (P13423 30-764 limits assumed): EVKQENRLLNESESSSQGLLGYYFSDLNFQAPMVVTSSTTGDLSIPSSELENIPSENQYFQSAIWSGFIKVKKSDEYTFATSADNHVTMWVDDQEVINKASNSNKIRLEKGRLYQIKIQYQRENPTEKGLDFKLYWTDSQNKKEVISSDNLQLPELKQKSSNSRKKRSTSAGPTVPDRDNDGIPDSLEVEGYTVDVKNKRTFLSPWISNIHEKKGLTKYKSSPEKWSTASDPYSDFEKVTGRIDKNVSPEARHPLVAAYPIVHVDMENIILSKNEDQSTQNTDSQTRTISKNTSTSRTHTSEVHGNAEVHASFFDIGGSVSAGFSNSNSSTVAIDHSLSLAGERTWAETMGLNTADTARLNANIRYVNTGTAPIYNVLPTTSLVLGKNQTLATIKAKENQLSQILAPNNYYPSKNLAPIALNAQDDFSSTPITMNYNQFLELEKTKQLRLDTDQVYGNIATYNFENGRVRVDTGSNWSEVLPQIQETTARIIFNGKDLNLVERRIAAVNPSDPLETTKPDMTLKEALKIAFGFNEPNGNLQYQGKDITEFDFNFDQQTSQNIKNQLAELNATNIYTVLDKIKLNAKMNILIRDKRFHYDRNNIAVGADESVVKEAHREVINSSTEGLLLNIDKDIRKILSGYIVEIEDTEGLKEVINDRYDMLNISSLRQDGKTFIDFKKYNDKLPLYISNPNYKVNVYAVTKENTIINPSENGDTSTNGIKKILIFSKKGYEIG

B1: 1H scFv (scFv)
scFv: DIQMTQTTSSLSASLGDRVTISCRASQDIRNYLNWYQQKPDGTVKLLIYYTSRLLPGVPSRFSGSGSGTDYSLTISNQEQEDIGTYFCQQGNTLPWTGFFFTKLEIRRGGGGSGGGGSGGGGSGGGGSEVQLQQSGPELVKPGASVKISCKIDSGYAFSSSWMNWVKQRFGQGLEWIGRIYPGDGDTNYNGKFKGKATLTADKSSSTAYMQLSSLTSVDSAVYFCARSGLLRYAMDYWGQGTSVTVSS
For the molecule B1, in assay [1], the Kd was 0.25 nM and the “fold lower equilibrium dissociation constant than 14B7” value was 48 fold. In assay [2], this molecule yielded an equilibrium dissociation constant (Kd) of 0.24 nM, a koff of 0.00017 s⁻¹ and a kon of 720000 M⁻¹ s⁻¹.

Source of the values: patent US7446182 (University of Texas, dated 2008).
